Data on 5 molecules can be found in paper PMC2897767, “Two Distinct Mechanisms for Actin Capping Protein Regulation—Steric and Allosteric Inhibition” (PLoS Biology, 2010).

Read-outs that look alike come from different tables or passages of the source. A value given as a limit tells only on which side of the number the result lay.

Assay [1] has as its system CP. Description: SPR binding of CP to immobilized GST-CD2AP / GST-CARMIL fragments. The arrangement: species or system chicken. The conditions noted are these: 20°C; for kon / koff: SPR (Biacore), CP perfused, 1:1 binding model; for kon: GST-fusion immobilized via anti-GST antibody on CM5 chip, 50 mM KCl, 1 mM MgCl2, 0.005% Tween-20, 10 mM imidazole pH 7.0; for koff: GST-fusion immobilized. The procedure:
(§1) Expression vectors for chicken CPfull and CPΔβC were constructed in pETDuet-1 by PCR, using pET-3d/CP [38] as the template. CP was expressed in E. coli Rosetta2 (DE3) and was purified as described. V-1 (human), expressed in E. coli Rosetta2 (DE3) as a GST-fusion protein, was affinity-purified and the tag was removed. Synthetic peptides derived from CARMIL proteins were obtained from Invitrogen. For crystallization, CP was incubated with a 1.2–2.0-fold molar excess of V-1 or CARMIL peptides at 4°C for 2 h, followed by gel filtration to purify the complexes. Expression vectors for the GST-CA constructs were prepared from the mouse cDNA clone as previously described. Vectors for GST-CD fragments were constructed by PCR cloning using a human whole brain cDNA library (Clontech) as the template. Amplified DNA fragments were cloned into pGEX-6P-1. GST-fusion proteins were expressed in E. coli Rosetta2 (DE3) cells and affinity-purified using glutathione sepharose resin. Mutations were introduced using a Quikchange mutagenesis kit (Stratagene). Actin was prepared from rabbit skeletal muscle, as previously described, and was further purified by gel filtration chromatography. Pyrene labeled-actin was prepared as described. Spectrin-actin seeds were prepared from rabbit red blood cells, as previously described.
(§2) The binding affinities of CP for V-1 or CARMIL proteins were evaluated by surface plasmon resonance measurements with Biacore 3000 or Biacore 2000 instruments (GE Healthcare). GST-fusion proteins (GST-V-1, GST-CA, or GST-CD) were immobilized onto a CM5 sensor chip up to 200 RU (response units; 200 pg/mm^2) via anti-GST antibodies. CP at various concentrations in running buffer (50 mM KCl, 1 mM MgCl2, 0.005% Tween-20, 10 mM imidazole, pH 7.0) was perfused over the chip at 20°C, at a flow rate of 20 µl/min. Response curves were obtained by subtracting the background signal generated simultaneously on a control flow cell with immobilized GST. To measure the effect of the CARMIL peptides on the facilitation of CP/V-1 dissociation (in Figure 11C and 11D), we used the “co-inject” mode for successive injections of the peptides followed by CP. Kinetic parameters were determined by fitting the sensorgrams to a simple 1∶1 binding model, using the Bia-evaluation software (GE Healthcare). KD values were obtained from the kinetic rate constants. […] KD values were evaluated by plotting these values against the concentrations of CP.

In a further assay the test system is CP (β) D44N. Description: SPR binding of mutant CP to immobilized GST-CD56 / GST-CA92. The following applies: analyte CP (β) D44N, 20°C, pH 7.0. Also on record: species or system chicken. The method, then: as §1, §2
On the technique in general: SPR reads the build-up and loss of mass on a sensor chip optically.

The test system of another assay is CP (β) D63N. Described as above. The arrangement: species or system chicken. The conditions noted are these: analyte CP (β) D63N, 20°C, pH 7.0. The method, then:
as §1, §2

In the next assay the test system is CP (β) D67N. Described as above. The arrangement: species or system chicken. The following applies: analyte CP (β) D67N, 20°C, pH 7.0. The method, then: as §1, §2
The test system of a further assay is CP (β) Y64F. Described as above. Also on record: species or system chicken. The following applies: analyte CP (β) Y64F, 20°C, pH 7.0. The procedure: as §1, §2
A further assay has as its system CPfull (wild type CP). Put plainly: Actin polymerization assay (barbed end elongation from spectrin-actin seeds): inhibition of CP capping. It counts as biochemical, chicken. The following applies: actin 1.2 µM (5% pyrene-labeled), 7.2 nM CPfull, 25°C (Figure 9F). The procedure:
(A) Superposition of the C-termini of the peptides. CD Phe505 and CK Arg169 are shown as stick models. The conserved proline at the C-terminus of the motifs is shown as balls. (B) CD2AP constructs used for biochemical assays. (C) CARMIL constructs used for biochemical assays. […] Actin (1.2 µM, 5% pyrene-labeled) was polymerized from spectrin-actin seeds in the presence of 3.6 nM CPfull (D), 10 nM CPβΔC (E), or 7.2 nM CPfull (F) with various concentrations of CARMIL peptides or GST-CA constructs.
The barbed end elongation assay from spectrin-actin seeds was performed essentially as previously described. Briefly, G-actin was stored in G-buffer (0.2 mM CaCl2, 0.2 mM ATP, 0.5 mM DTT and 10 mM imidazole, pH 7.0). At 90 s prior to polymerization, the Ca^2+ was replaced with Mg^2+, by the addition of 1/10 volume of 10 mM EGTA and 1 mM MgCl2 to G-actin. […] Actin polymerization was measured by monitoring the pyrene-actin fluorescence (excitation 370 nm; emission 410 nm) at 25°C.
(0.16 MB TIF) Click here for additional data file.

For assay [2], the system named is CP. The following applies: estimated, cited from earlier work. The source says: How do CARMIL proteins inhibit the capping activity of CP in an allosteric manner? […] We propose that CARMIL proteins inhibit CP in a similar manner (Figure 13C); CARMIL proteins limit the conformational distribution of CP to ...
The target of assay [3] is CP. The conditions noted are these: ref Fujiwara, et al.; cited from earlier work. The source says: We tested the importance of the C-terminal flanking regions of the CP-binding motif using a binding assay (Table 2; the constructs used for the measurement are shown in Figure 9B). […] In the second CP binding site in the CP/CBR115 complex, human CARMIL Val1034 (corresponding to mouse CA1038), which is missing in GST-76, forms multiple interactions with CP α-subunit residues. Thus, the absence of this key valine in GST-CA76 results in the lower CP binding affinity compared with the full active CARMIL fragments.

B1: GST-CA92: GST fusion of mouse CARMIL residues 962–1053 (protein)
chain: FPSVRQEKRSSGLISELPSEEGRRLEHFTKLRPKRNKKQQPTQAAVCTISILPQDGEQNGLMGRVDEGVDEFFTKKVTKMDCKRSSSRSSDA
modifications: left off: GST, end not stated, kept
Take B1: the on-rate constant (kon) in the assay with CP [1] came out at 1.6e+06 M⁻¹ s⁻¹. Also, the dissociation rate constant (koff) was 0.0052 s⁻¹ with CP [1] (pH 7.0); greater than 0.1 s⁻¹ in the assay with CP (β) D44N; greater than 0.1 s⁻¹ in the assay with CP (β) D63N; greater than 0.1 s⁻¹ in the assay with CP (β) D67N; 0.0046 s⁻¹ in the assay on CP (β) Y64F. The same molecule returned a Kon in the assay with CP (β) Y64F of 460000 M⁻¹ s⁻¹. The “CP inhibitory activity of GST-CARMIL constructs” value with CPfull (wild type CP) is listed as “strongest CP inhibitory effect”.

B2: GST-CA76: GST fusion of mouse CARMIL residues 962–1037 (protein)
chain: FPSVRQEKRSSGLISELPSEEGRRLEHFTKLRPKRNKKQQPTQAAVCTISILPQDGEQNGLMGRVDEGVDEFFTKK
modifications: left off: GST, end not stated, kept
For the molecule B2, the kon in the assay on CP [1] was found to be 230000 M⁻¹ s⁻¹. In the assay with CP [1] (pH 7.0), this molecule gave a dissociation rate constant (koff) of 0.019 s⁻¹.

B3: CARMIL: multi-domain protein (∼150 kDa) that binds CP and uncaps filaments (protein, UniProt Q6EDY6 1-1374, looked up)
F-actin-uncapping protein …: MTDESSDVPRELMESIKDVIGRKIKISVKKKVKLEVKGDRVENKVLVLTSCRAFLLSARIPSKLELTFSYLEIHGVICHKPAQMVVETEKCNMSMKMVSPEDVSEVLAHIGTCLRRIFPGLSPLRIMKKVSMEPSERLASLQALWDSQTLAEPGPCGGFSQMYACVCDWLGFSYKEEVQWDVDTIYLTQDTRELNLQDFSHLEHRDLIPIIAALEYNQWFTKLSSKDLKLSTDVCEQILRVVSRSNRLEELVLENAGLRIDFAQKLAGALAHNPNSGLHTINLAGNSLEDRGVSSLSIQFAKLPKGLKHLNLSKTSLSPKGVNSLCQSLSANPLTASTLTHLDLSGNALRGDDLSHMYNFLAQPNTIVHLDLSNTECSLEMVCSALLRGCLQCLAVLNLSRSVFSHRKGKEVPPSFKQFFSSSLALIQINLSGTKLSPEPLKALLLGLACNHSLKGVSLDLSNCELGHCLRSGGAQVLEGCIAEIHNITSLDISDNGLESDLSTLIVWLSKNRSIQHLALGKNFNNMKSKNLTPVLDNLVQMIQDEDSPLQSLSLADSKLKAEVTIIINALGSNTSLTKVDISGNGMGDMGAKMLAKALQINTKLRTVIWDKNNITAQGFQDIAVAMEKNYTLRFMPIPMYDAAQALKTNPEKTEEALQKIENYLLRNHETRKYLQEQAYRLQQGIVTSTTQQMIDRICVKVQDHLNSLRACGGDAIQEDLKAAERLMRDAKNSKTLLPNLYHVGGASWAGASGLSSSPIQETLESMAGEVTRVVDEQLKDLLESMVDAAETLCPNVMRKAHIRQDLIHASTEKISIPRTFVKNVLLEQSGIDILNKISEVKLTVASFLSDRIVDEILDSLSSSHRKLANHFSRLNKSLPQREDLEVELVEEKPVKRAILTVEDLTEVERLEDLDTCMMTPKSKRKSIHSRMLRPVSRAFEMEFDLDKALEEVPIHIEDPPFPSVRQEKRSSGLISELPSEEGRRLEHFTKLRPKRNKKQQPTQAAVCTISILPQDGEQNGLMGRVDEGVDEFFTKKVTKMDCKRSSSRSSDAHELGEGDEKKKRDSRRSGFLNLIKSRSRSERPPTVLMTEELSSPKGAMRSPPVDTTRKEIKAAEHNGAPDRTEEIKTPEPLEEGPAEEAGRAERSDSRGSPQGGRRYVQVMGSGLLAEMKAKQERRAACAQKKLGNDVISQDPSSPVSCNTERLEGGATVPKLQPGLPEARFGSGTPEKNAKAEPRVDGGCRSRSSSSMPTSPKPLLQSPKPSPSARPSIPQKPRTASRPEDTPDSPSGPSSPKVALLPPILKKVSSDKERDGQNSSQSSPRSFSQEASRRSWGPAQEYQEQKQRSSGKDGHQGSKCSDSGEEAEKEFIFV
In the case of B3, the results for the “affinity for barbed end-bound CP lower than for free CP” value in the assay on CP [2] (ref 23) and with CP [2] (ref 29) were 10- to 100 fold and 200 fold, respectively.

B4: GST-CA63: GST fusion of mouse CARMIL residues 962–1024 (protein)
chain: FPSVRQEKRSSGLISELPSEEGRRLEHFTKLRPKRNKKQQPTQAAVCTISILPQDGEQNGLMG
modifications: left off: GST, end not stated, kept
In the assay with CP [1] (pH 7.0), B4 showed a koff greater than 0.1 s⁻¹. On CP [1] (SPR, pH 7.0), the “KD (in words)” value is given as “micromolar range”.

B5: mCAH3: mCAH3 fragment, mouse CARMIL residues 965-1038 (protein, UniProt Q6EDY6 965-1038, looked up, fragment)
chain: VRQEKRSSGLISELPSEEGRRLEHFTKLRPKRNKKQQPTQAAVCTISILPQDGEQNGLMGRVDEGVDEFFTKKV
Consider B5, for which the Kd at CP [3] is roughly 1 nM.

In general, kon refers to a measure of how fast the partners come together. A low value points to slower complex formation. The koff is the first-order rate constant of dissociation. Low values mean slow dissociation, high ones fast dissociation. For orientation: Kd means the constant that tells how readily two partners part at equilibrium.
